Assay results from patent US20260242735A1 (UNIVERSIT T BASEL, published 2026).

B1: Refmab #4 (antibody, V domains shown)
VH: QVQLVQSGAEVKKPGESVKVSCKASGYTFTNYGMNWVKQAPGQGLEWMGWINTYTGEPTYADKFQGRVTMTTDTSTSTAYMEIRNLGGDDTAVYYCARWSWSDGYYVYFDYWGQGTSVTVSS
VL: DIVMTQSPDSLTVSLGERTTINCKSSQSVLDSSTNKNSLAWYQQKPGQPPKLLLSWASTRESGIPDRFSGSGSGTDFTLTIDSPQPEDSATYYCQQSAHFPITFGQGTRLEIK
notes: The alanine scan used IgG or Fab
B2: Refmab #1 (antibody, V domains shown)
VH: EVQLVQSGAEVKKPGSSVKVSCKASGYTITDSNIHWVRQAPGQSLEWIGYIYPYNGGTDYNQKFKNRATLTVDNPTNTAYMELSSLRSEDTAFYYCVNGNPWLAYWGQGTLVTVSS
VL: DIQLTQSPSTLSASVGDRVTITCRASESLDNYGIRFLTWFQQKPGKAPKLLMYAASNQGSGVPSRFSGSGSGTEFTLTISSLQPDDFATYYCQQTKEVPWSFGQGTKVEVK
notes: The alanine scan used IgG or Fab; also called hP67.6
B3: Refmab #2 (antibody, V domains shown)
VH: QVQLVQSGAEVKKPGSSVKVSCKASGGTFSDYAISWVRQAPGQGLEWMGRIIPILGVADYAQKFQGRVTITADKSTRTAYMELSSLRSEDTAVYYCARNWADAFDIWGQGTMVTVSS
VL: DIQLTQSPSSLSASVGDRVTITCRASQGISSVLAWYQQKPGKAPKLLIYDASSLESGVPSRFSGSGSGTDFTLTISSLQPEDFATYYCQQFDSSITFGQGTKLEIK
notes: as for B1

Assays:
Experiment in all cases: flow cytometry on HEK293-T, alanine scan
human CD33 A108S = human CD33 A108S (human, UniProt P20138 18-364)
Method: (§1) An alanine scan on human CD33 was performed to the determine the residues on CD33 that are involved in binding to the antibodies investigated. […] Briefly, a mutation library of CD33 was created by high-throughput, site-directed mutagenesis. Each residue was individually mutated to alanine, with alanine codons mutated to serine. The mutant library was arrayed in 384-well microplates and transiently transfected into HEK293-T. Following transfection, cells were incubated with the indicated antibodies (IgG or Fab) at concentrations pre-determined using an independent immunofluorescence titration curve on wild type CD33. […] Binding of each antibody to each mutant clone was determined in duplicates. For each point, background fluorescence was subtracted from the raw data, which were then normalized to antibody reactivity with wild type CD33.
(§2) Critical residues for antibody binding (outlined in dark grey) were residues whose mutations led to a binding of the test Abs of less than 20%. Additional secondary residues (outlined in light grey) were identified that led to a binding of the test Abs of between 20 and 40% as compared to the wild type CD33.

human CD33 L134A = human CD33 L134A (human, UniProt P20138 18-364)
Method: as §1, §2

human CD33 V136A = human CD33 V136A (human, UniProt P20138 18-364)
Method: as §1, §2

human CD33 V165A = human CD33 V165A (human, UniProt P20138 18-364)
Method: as §1, §2

human CD33 N160A = human CD33 N160A (human, UniProt P20138 18-364)
Method: as §1, §2

human CD33 R110A = human CD33 R110A (human, UniProt P20138 18-364)
Method: as §1, §2

human CD33 S115A = human CD33 S115A (human, UniProt P20138 18-364)
Method: as §1, §2

human CD33 S131A = human CD33 S131A (human, UniProt P20138 18-364)
Method: as §1, §2

human CD33 K146A = human CD33 K146A (human, UniProt P20138 18-364)
Method: as §1, §2

human CD33 W167A = human CD33 W167A (human, UniProt P20138 18-364)
Method: as §1, §2

human CD33 V106A = human CD33 V106A (human, UniProt P20138 18-364)
Method: as §1, §2

human CD33 R98A = human CD33 R98A (human, UniProt P20138 18-364)
Method: as §1, §2

human CD33 Y127A = human CD33 Y127A (human, UniProt P20138 18-364)
Method: as §1, §2

human CD33 M120A = human CD33 M120A (human, UniProt P20138 18-364)
Method: as §1, §2

human CD33 G123A = human CD33 G123A (human, UniProt P20138 18-364)
Method: as §1, §2

human CD33 D112A = human CD33 D112A (human, UniProt P20138 18-364)
Method: as §1, §2

human CD33 S102A = human CD33 S102A (human, UniProt P20138 18-364)
Method: as §1, §2

human CD33 I105A = human CD33 I105A (human, UniProt P20138 18-364)
Method: as §1, §2

human CD33 R144A = human CD33 R144A (human, UniProt P20138 18-364)
Method: as §1, §2

human CD33 C163A = human CD33 C163A (human, UniProt P20138 18-364)
Method: as §1, §2

human CD33 L161A = human CD33 L161A (human, UniProt P20138 18-364)
Method: as §1, §2

human CD33 R122A = human CD33 R122A (human, UniProt P20138 18-364)
Method: as §1, §2

human CD33 F118A = human CD33 F118A (human, UniProt P20138 18-364)
Method: as §1, §2

human CD33 D107A = human CD33 D107A (human, UniProt P20138 18-364)
Method: as §1, §2

human CD33 G94A = human CD33 G94A (human, UniProt P20138 18-364)
Method: as §1, §2

human CD33 S135A = human CD33 S135A (human, UniProt P20138 18-364)
Method: as §1, §2

human CD33 D95A = human CD33 D95A (human, UniProt P20138 18-364)
Method: as §1, §2

human CD33 K126A = human CD33 K126A (human, UniProt P20138 18-364)
Method: as §1, §2

human CD33 S158A = human CD33 S158A (human, UniProt P20138 18-364)
Method: as §1, §2

human CD33 I147A = human CD33 I147A (human, UniProt P20138 18-364)
Method: as §1, §2

human CD33 V138A = human CD33 V138A (human, UniProt P20138 18-364)
Sequence of human CD33 V138A (P20138 18-364 V138A limits assumed): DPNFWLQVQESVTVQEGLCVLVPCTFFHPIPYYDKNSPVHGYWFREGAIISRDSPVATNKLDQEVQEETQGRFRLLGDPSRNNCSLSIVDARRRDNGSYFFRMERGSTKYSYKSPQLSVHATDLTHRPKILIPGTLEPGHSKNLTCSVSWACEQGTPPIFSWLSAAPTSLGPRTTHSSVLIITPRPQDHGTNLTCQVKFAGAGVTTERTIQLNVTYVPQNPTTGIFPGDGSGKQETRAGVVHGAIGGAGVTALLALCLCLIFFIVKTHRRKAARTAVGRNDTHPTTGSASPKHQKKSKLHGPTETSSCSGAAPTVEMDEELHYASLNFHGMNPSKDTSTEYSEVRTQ
Method: as §1, §2

Sequence of human CD33 G94A (P20138 18-364 G94A limits assumed): as the sequence (P20138 18-364 V138A limits assumed) above, with G77A, A121V counted along it
Sequence of human CD33 C163A (P20138 18-364 C163A limits assumed): as the sequence (P20138 18-364 V138A limits assumed) above, with A121V, C146A counted along it
Sequence of human CD33 I105A (P20138 18-364 I105A limits assumed): as the sequence (P20138 18-364 V138A limits assumed) above, with I88A, A121V counted along it
Sequence of human CD33 R98A (P20138 18-364 R98A limits assumed): as the sequence (P20138 18-364 V138A limits assumed) above, with R81A, A121V counted along it
Sequence of human CD33 Y127A (P20138 18-364 Y127A limits assumed): as the sequence (P20138 18-364 V138A limits assumed) above, with Y110A, A121V counted along it
Sequence of human CD33 S135A (P20138 18-364 S135A limits assumed): as the sequence (P20138 18-364 V138A limits assumed) above, with S118A, A121V counted along it
Sequence of human CD33 D107A (P20138 18-364 D107A limits assumed): as the sequence (P20138 18-364 V138A limits assumed) above, with D90A, A121V counted along it
Sequence of human CD33 L161A (P20138 18-364 L161A limits assumed): as the sequence (P20138 18-364 V138A limits assumed) above, with A121V, L144A counted along it
Sequence of human CD33 W167A (P20138 18-364 W167A limits assumed): as the sequence (P20138 18-364 V138A limits assumed) above, with A121V, W150A counted along it
Sequence of human CD33 D95A (P20138 18-364 D95A limits assumed): as the sequence (P20138 18-364 V138A limits assumed) above, with D78A, A121V counted along it
Sequence of human CD33 K146A (P20138 18-364 K146A limits assumed): as the sequence (P20138 18-364 V138A limits assumed) above, with A121V, K129A counted along it
Sequence of human CD33 R110A (P20138 18-364 R110A limits assumed): as the sequence (P20138 18-364 V138A limits assumed) above, with R93A, A121V counted along it
Sequence of human CD33 R144A (P20138 18-364 R144A limits assumed): as the sequence (P20138 18-364 V138A limits assumed) above, with A121V, R127A counted along it
Sequence of human CD33 N160A (P20138 18-364 N160A limits assumed): as the sequence (P20138 18-364 V138A limits assumed) above, with A121V, N143A counted along it
Sequence of human CD33 G123A (P20138 18-364 G123A limits assumed): as the sequence (P20138 18-364 V138A limits assumed) above, with G106A, A121V counted along it
Sequence of human CD33 S102A (P20138 18-364 S102A limits assumed): as the sequence (P20138 18-364 V138A limits assumed) above, with S85A, A121V counted along it
Sequence of human CD33 V106A (P20138 18-364 V106A limits assumed): as the sequence (P20138 18-364 V138A limits assumed) above, with V89A, A121V counted along it
Sequence of human CD33 S115A (P20138 18-364 S115A limits assumed): as the sequence (P20138 18-364 V138A limits assumed) above, with S98A, A121V counted along it
Sequence of human CD33 L134A (P20138 18-364 L134A limits assumed): as the sequence (P20138 18-364 V138A limits assumed) above, with L117A, A121V counted along it
Sequence of human CD33 I147A (P20138 18-364 I147A limits assumed): as the sequence (P20138 18-364 V138A limits assumed) above, with A121V, I130A counted along it
Sequence of human CD33 A108S (P20138 18-364 A108S limits assumed): as the sequence (P20138 18-364 V138A limits assumed) above, with A91S, A121V counted along it
Sequence of human CD33 M120A (P20138 18-364 M120A limits assumed): as the sequence (P20138 18-364 V138A limits assumed) above, with M103A, A121V counted along it
Sequence of human CD33 S158A (P20138 18-364 S158A limits assumed): as the sequence (P20138 18-364 V138A limits assumed) above, with A121V, S141A counted along it
Sequence of human CD33 R122A (P20138 18-364 R122A limits assumed): as the sequence (P20138 18-364 V138A limits assumed) above, with R105A, A121V counted along it
Sequence of human CD33 S131A (P20138 18-364 S131A limits assumed): as the sequence (P20138 18-364 V138A limits assumed) above, with S114A, A121V counted along it
Sequence of human CD33 V136A (P20138 18-364 V136A limits assumed): as the sequence (P20138 18-364 V138A limits assumed) above, with V119A, A121V counted along it
Sequence of human CD33 F118A (P20138 18-364 F118A limits assumed): as the sequence (P20138 18-364 V138A limits assumed) above, with F101A, A121V counted along it
Sequence of human CD33 K126A (P20138 18-364 K126A limits assumed): as the sequence (P20138 18-364 V138A limits assumed) above, with K109A, A121V counted along it
Sequence of human CD33 D112A (P20138 18-364 D112A limits assumed): as the sequence (P20138 18-364 V138A limits assumed) above, with D95A, A121V counted along it
Sequence of human CD33 V165A (P20138 18-364 V165A limits assumed): as the sequence (P20138 18-364 V138A limits assumed) above, with A121V, V148A counted along it

Binder | Mean % WT Binding (human CD33 A108S) [% WT binding] | Mean % WT Binding (human CD33 L134A) [% WT binding] | Mean % WT Binding (human CD33 V136A) [% WT binding] | Mean % WT Binding (human CD33 V165A) [% WT binding] | Mean % WT Binding (human CD33 N160A) [% WT binding] | Mean % WT Binding (human CD33 R110A) [% WT binding] | Mean % WT Binding (human CD33 S115A) [% WT binding] | Mean % WT Binding (human CD33 S131A) [% WT binding] | Mean % WT Binding (human CD33 K146A) [% WT binding] | Mean % WT Binding (human CD33 W167A) [% WT binding] | Mean % WT Binding (human CD33 V106A) [% WT binding] | Mean % WT Binding (human CD33 R98A) [% WT binding] | Mean % WT Binding (human CD33 Y127A) [% WT binding] | Mean % WT Binding (human CD33 M120A) [% WT binding] | Mean % WT Binding (human CD33 G123A) [% WT binding] | Mean % WT Binding (human CD33 D112A) [% WT binding] | Mean % WT Binding (human CD33 S102A) [% WT binding] | Mean % WT Binding (human CD33 I105A) [% WT binding] | Mean % WT Binding (human CD33 R144A) [% WT binding] | Mean % WT Binding (human CD33 C163A) [% WT binding] | also measured
B1 | 86.5 | 82.2 | 47.7 | 117 | 102 | 88.4 | 36.4 | 134 | 122 | 112 | 110 | 128 | 300 | 96.8 | 97.9 | 36 | 73.6 | 21.6 | 99.7 | 43.3 | Mean % WT Binding (human CD33 L161A): 114 % WT binding; Mean % WT Binding (human CD33 R122A): 23 % WT binding; Mean % WT Binding (human CD33 F118A): 6 % WT binding; Mean % WT Binding (human CD33 D107A): 93 % WT binding; Mean % WT Binding (human CD33 G94A): 59 % WT binding; Mean % WT Binding (human CD33 S135A): 109 % WT binding; Mean % WT Binding (human CD33 D95A): 90.9 % WT binding; Mean % WT Binding (human CD33 K126A): 212 % WT binding; Mean % WT Binding (human CD33 S158A): 98 % WT binding; Mean % WT Binding (human CD33 I147A): 58.7 % WT binding
B2 | 85.3 | 95.4 | 64.2 | 91.6 | 82.3 | 94.9 | 86.9 | 85.9 | 78.5 | 89.4 | 88.5 | 99.1 | 92.6 | 79.8 | 107 | 51.8 | 85.8 | 31.5 | 110 | 84.6 | Mean % WT Binding (human CD33 V138A): 72.3 % WT binding; Mean % WT Binding (human CD33 L161A): 87 % WT binding; Mean % WT Binding (human CD33 R122A): 107 % WT binding; Mean % WT Binding (human CD33 F118A): 0.1 % WT binding; Mean % WT Binding (human CD33 D107A): 87.7 % WT binding; Mean % WT Binding (human CD33 G94A): 88.3 % WT binding; Mean % WT Binding (human CD33 S135A): 98.6 % WT binding; Mean % WT Binding (human CD33 D95A): 80.5 % WT binding; Mean % WT Binding (human CD33 K126A): 100 % WT binding; Mean % WT Binding (human CD33 S158A): 87.1 % WT binding; Mean % WT Binding (human CD33 I147A): 71.6 % WT binding
B3 | 104 | 99.6 | 99.8 | 124 | 107 | 109 | 93.2 | 123 | 115 | 109 | 112 | 122 | 146 | 70.7 | 82 | 58.7 | 89.6 | 43.7 | 112 | 97.7 | Mean % WT Binding (human CD33 V138A): 98.5 % WT binding; Mean % WT Binding (human CD33 L161A): 114 % WT binding; Mean % WT Binding (human CD33 R122A): 3.6 % WT binding; Mean % WT Binding (human CD33 F118A): 0.6 % WT binding; Mean % WT Binding (human CD33 D107A): 109 % WT binding; Mean % WT Binding (human CD33 G94A): 108 % WT binding; Mean % WT Binding (human CD33 S135A): 120 % WT binding; Mean % WT Binding (human CD33 D95A): 110 % WT binding; Mean % WT Binding (human CD33 K126A): 121 % WT binding; Mean % WT Binding (human CD33 S158A): 111 % WT binding; Mean % WT Binding (human CD33 I147A): 92.2 % WT binding
